The text below walks through data of patent publication US20180071389A1 (HER MAJESTY THE QUEEN IN THE RIGHT OF CANADA AS REPRESENTED …, published 2018).

T1: GP1 1-501aa (Ebola virus (ZEbov by the title of …, UniProt Q05320 33-501))
T1 sequence: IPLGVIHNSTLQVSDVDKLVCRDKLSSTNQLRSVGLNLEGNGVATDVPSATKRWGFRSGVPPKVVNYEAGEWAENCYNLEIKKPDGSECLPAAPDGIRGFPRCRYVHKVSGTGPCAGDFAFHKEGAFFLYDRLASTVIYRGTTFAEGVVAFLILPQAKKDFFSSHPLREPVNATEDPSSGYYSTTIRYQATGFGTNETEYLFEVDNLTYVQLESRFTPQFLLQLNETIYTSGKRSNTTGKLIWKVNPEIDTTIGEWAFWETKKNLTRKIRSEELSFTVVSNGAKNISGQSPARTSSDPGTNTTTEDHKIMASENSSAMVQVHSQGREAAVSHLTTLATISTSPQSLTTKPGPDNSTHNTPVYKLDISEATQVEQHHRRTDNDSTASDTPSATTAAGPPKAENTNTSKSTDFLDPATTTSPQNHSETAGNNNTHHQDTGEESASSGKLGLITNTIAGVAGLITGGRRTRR

T2: Mucin domain 333-458aa (Ebola virus (ZEbov by the title of …, UniProt Q05320 333-458))
T2 sequence: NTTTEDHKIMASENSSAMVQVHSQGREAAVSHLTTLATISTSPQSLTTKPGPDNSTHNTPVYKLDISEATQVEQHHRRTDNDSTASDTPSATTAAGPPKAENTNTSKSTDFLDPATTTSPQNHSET

T3: sGP 1-295aa (Ebola virus (ZEbov by the title of …, UniProt P60170 33-295))
T3 sequence: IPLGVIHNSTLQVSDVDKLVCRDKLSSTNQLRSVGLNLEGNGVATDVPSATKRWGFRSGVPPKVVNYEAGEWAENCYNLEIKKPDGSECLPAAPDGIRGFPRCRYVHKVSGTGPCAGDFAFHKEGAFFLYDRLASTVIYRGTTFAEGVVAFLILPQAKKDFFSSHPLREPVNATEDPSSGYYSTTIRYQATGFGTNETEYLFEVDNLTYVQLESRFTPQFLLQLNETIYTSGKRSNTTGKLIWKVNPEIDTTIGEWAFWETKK

B1: monoclonal antibody 2G4 (antibody, V domains shown)
VH: GGGLMQPGGSMKLSCVASGFTFSNYWMNWVRQSPEKGLEWVAEIRLKSNNYATHYAESVKGRFTISRDDSKRSVYLQMNTLRAEDTGIYYCTRGNGNYRAMDYWGQGTSVTVSS
VL: ASLSVSVGETVSITCRASENIYSSLAWYQQKQGKSPQLLVYSATILADGVPSRFSGSGSGTQYSLKINSLQSEDFGTYYCQHFWGTPYTFGGGTKLEIKR
B2: monoclonal antibody 4G7 (antibody, V domains shown)
VH: GPELEMPGASVKISCKASGSSFTGFSMNWVKQSNGKSLEWIGNIDTYYGGTTYNQKFKGKATLTVDKSSSTAYMQLKSLTSEDSAVYYCARSAYYGSTFAYWGQGTLVTVSA
VL: ASLSASVGETVTITCRASENIYSYLAWYQQKQGKSPQLLVYNAKTLIEGVPSRFSGSGSGTQFSLKINSLQPEDFGSYFCQHHFGTPFTFGSGTELEIKR
B3: monoclonal antibody 1H3 (antibody, V domains shown)
VH: GAELVKPGASVKLSCTASGFNIKDTYIHWVKQGPEQGLEWIGRIDPANGNTKYDPKFQGKATITADTSSNTAYLQLSGLTSEDTAVYYCARESRISTMLTTGYFDYWGQGTTLTVSS
VL: AIMSASPGEKVTMTCSASSSVSYMYWYQQKPGSSPRLLIYDTSNLASGVPVRFSGSGSGTSYSLTISRMEAEDAATYYCQQWSSYPYTFGGGTKLEIKR
B4: monoclonal antibody 7G4 (antibody, V domains shown)
VH: GGGLVQPGGSLRLSCATSGFTFTDHYMGWVRQPPGKALEWLAFVRYKAKGYTTEYTASVKGRFTISRDNSQSILYLQMNTLRTEDSATYYCARDRGGYVGAMDYWGQGTSVTVSS
VL: LSLPVSLGDQASISCRSSQSLVHRNGNTYFHWYLQKPGQSPKLLIYKVSNRFSGVPDRFSGSGSGTDFTLKISRVEAEDLGVYFCSQSTHVPYTFGGGTKLEIKR
B5: monoclonal antibody 5E6 (antibody, V domains shown)
VH: GGGLVKPGGSLKLSCAASGSAFSRYDMSWVRQTPEKRLEWVAYISRGGGFIYYPDTVKGRFTISRDNAKNTLYLQMSSLKSDDTAMYYCARHVYYGSSPLYAMDYWGQGTSVTVSS
VL: SASFSLGASAKLTCTLSSQHSTFTIEWYQQQPLKPPKYVMELKKDGSHSTGDGIPDRFSGSSSGADRYLSISNIQPEDEAIYICGVGDTINEQFVYVFGGGTKVTVLG
B6: monoclonal antibody 5D2 (antibody, V domains shown)
VH: GPGLVRPSQSLSLTCTVTGYSITSDYAWNWIRQFPGNKLEWLGYITNTGSTGFNPSLKSRISITRDTSKNQFFLQLISVTTEDTATYHCARGLAYWGQGTLVTVSA
VL: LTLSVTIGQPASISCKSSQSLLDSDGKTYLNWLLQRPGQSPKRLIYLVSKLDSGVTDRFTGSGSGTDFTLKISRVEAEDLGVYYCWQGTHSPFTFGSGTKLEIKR
B7: monoclonal antibody 7C9 (antibody, V domains shown)
VH: GAELVKPGASVKLSCTASGFNIKDTYMHWVKERPDKGLEWIGRIDPANGNTKCDSRFQGKATITADTSSNTAYLQLSSLTSEDTAVYYCARRIYFGKGFDFWGQGTTLTVSS
VL: SSLSVSAGEKVTMSCKSSQSLFNSGDQKNYLAWYQQKPGQPPKLLIYGASTRESGVPDRFTGSGSGTDFTLTISSVQAEDLAVYYCQNDQFYPPTFGDGTKLDLKR
B8: monoclonal antibody 10C8 (antibody, V domains shown)
VH: GAELVRSGASVKLSCTSSGFNIKDYFLHWVKQRPEQGLEWIGWIDPENGDTEYAPKFQDKATMTADTSSNTAYLHLSSLTSEDTGVYYCNADGNYGKNYWGQGTTLTVSS
VL: LSLPVSLGDQASISCRSSQSLVHSNGNTFLHWYLQKPGQSPKLLIYRVSNRFSGVPDRFSGSGSGTDFTLKISRVEAEDLGVYFCSQSTHVPPYTFGGGTKLEIKR

For the first assay, the target named is T1, GP1 1-501aa. The assay is described as follows: ELISA, antigen coated 0.3 µg/well, serial dilutions of MAb.
For the molecule B1, the binding result is given as “no binding (tested: Cut off was 2X background)”.

The target of the next assay is T2, Mucin domain 333-458aa. The description is as above.
As for B2, the binding result is “no binding (tested: Cut off was 2X background)”.
With B1, the binding result was “no binding (tested: Cut off was 2X background)”.
On the same count and under the same terms, the value for B3 was “no binding (tested: Cut off was 2X background)”.

Another assay addresses T3, sGP 1-295aa. The assay is described as above.
In the case of B2, the binding result is “no binding (tested: Cut off was 2X background)”.
Same read-out and setting: with B4 the entry was “no binding (tested: Cut off was 2X background)”; with B1, “no binding (tested: Cut off was 2X background)”; with B5, “no binding (tested: Cut off was 2X background)”.
Same read-out and setting: the value for B6 was “no binding (tested: Cut off was 2X background)”; that for B7 was “no binding (tested: Cut off was 2X background)”; that for B8 was “no binding (tested: Cut off was 2X background)”.
